IntAct's records for PubMed 24012335

B1: Serine/threonine-protein kinase Warts (Drosophila melanogaster (Fruit fly)), Q9VA38 (parent)
chain: MHPAGEKRGGRPNDKYTAEALESIKQDLTRFEVQNNHRNNQNYTPLRYTATNGRNDALTPDYHHAKQPMEPPPSASPAPDVVIPPPPAIVGQPGAGSISVSGVGVGVVGVANGRVPKMMTALMPNKLIRKPSIERDTASSHYLRCSPALDSGAGSSRSDSPHSHHTHQPSSRTVGNPGGNGGFSPSPSGFSEVAPPAPPPRNPTACSAATPPPPVPPTSQAYVKRRSPALNNRPPAIAPPTQRGNSPVITQNGLKNPQQQLTQQLKSLNLYPGGGSGAVVEPPPPYLIQGGAGGAAPPPPPPSYTASMQSRQSPTQSQQSDYRKSPSSGIYSATSAGSPSPITVSLPPAPLAKPQPRVYQARSQQPIIMQSVKSTQVQKPVLQTAVAPQSPSSASASNSPVHVLAAPPSYPQKSAAVVQQQQQAAAAAHQQQHQHQQSKPPTPTTPPLVGLNSKPNCLEPPSYAKSMQAKAATVVQQQQQQQQQQQQVQQQQVQQQQQQQQQQLQALRVLQAQAQRERDQRERDQRERERDQQKLANGNPGRQMLPPPPYQSNNNNNSEIKPPSCNNNNIQISNSNLATTPPIPPAKYNNNSSNTGANSSGGSNGSTGTTASSSTSCKKIKHASPIPERKKISKEKEEERKEFRIRQYSPQAFKFFMEQHIENVIKSYRQRTYRKNQLEKEMHKVGLPDQTQIEMRKMLNQKESNYIRLKRAKMDKSMFVKLKPIGVGAFGEVTLVSKIDTSNHLYAMKTLRKADVLKRNQVAHVKAERDILAEADNNWVVKLYYSFQDKDNLYFVMDYIPGGDLMSLLIKLGIFEEELARFYIAEVTCAVDSVHKMGFIHRDIKPDNILIDRDGHIKLTDFGLCTGFRWTHNSKYYQENGNHSRQDSMEPWEEYSENGPKPTVLERRRMRDHQRVLAHSLVGTPNYIAPEVLERSGYTQLCDYWSVGVILYEMLVGQPPFLANSPLETQQKVINWEKTLHIPPQAELSREATDLIRRLCASADKRLGKSVDEVKSHDFFKGIDFADMRKQKAPYIPEIKHPTDTSNFDPVDPEKLRSNDSTMSSGDDVDQNDRTFHGFFEFTFRRFFDDKQPPDMTDDQAPVYV
partner: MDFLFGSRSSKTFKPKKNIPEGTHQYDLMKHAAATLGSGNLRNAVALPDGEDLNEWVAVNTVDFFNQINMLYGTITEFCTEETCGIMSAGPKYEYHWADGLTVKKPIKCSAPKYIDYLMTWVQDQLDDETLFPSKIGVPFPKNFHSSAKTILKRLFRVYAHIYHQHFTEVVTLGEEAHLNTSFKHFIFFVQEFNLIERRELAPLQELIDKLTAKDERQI
B2: Serine/threonine-protein kinase Warts (Drosophila melanogaster (Fruit fly)), Q9VA38 (parent)
chain: B1 chain
partner: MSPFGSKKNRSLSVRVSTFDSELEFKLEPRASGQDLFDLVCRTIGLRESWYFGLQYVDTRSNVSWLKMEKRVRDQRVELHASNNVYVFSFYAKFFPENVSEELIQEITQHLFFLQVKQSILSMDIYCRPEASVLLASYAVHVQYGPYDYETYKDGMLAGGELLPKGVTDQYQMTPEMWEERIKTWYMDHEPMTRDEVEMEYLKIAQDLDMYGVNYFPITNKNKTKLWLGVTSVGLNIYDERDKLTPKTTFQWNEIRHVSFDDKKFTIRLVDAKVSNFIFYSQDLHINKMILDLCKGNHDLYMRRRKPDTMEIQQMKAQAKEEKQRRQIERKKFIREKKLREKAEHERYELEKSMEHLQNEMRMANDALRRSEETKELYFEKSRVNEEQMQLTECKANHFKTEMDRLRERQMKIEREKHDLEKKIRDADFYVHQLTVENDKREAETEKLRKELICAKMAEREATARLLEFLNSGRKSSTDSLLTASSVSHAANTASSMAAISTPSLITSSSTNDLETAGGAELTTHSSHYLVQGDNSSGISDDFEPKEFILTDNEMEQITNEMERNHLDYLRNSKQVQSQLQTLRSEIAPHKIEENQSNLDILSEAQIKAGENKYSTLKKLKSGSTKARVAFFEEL
B3: Merlin (Homo sapiens), P35240 (parent)
chain: MAGAIASRMSFSSLKRKQPKTFTVRIVTMDAEMEFNCEMKWKGKDLFDLVCRTLGLRETWFFGLQYTIKDTVAWLKMDKKVLDHDVSKEEPVTFHFLAKFYPENAEEELVQEITQHLFFLQVKKQILDEKIYCPPEASVLLASYAVQAKYGDYDPSVHKRGFLAQEELLPKRVINLYQMTPEMWEERITAWYAEHRGRARDEAEMEYLKIAQDLEMYGVNYFAIRNKKGTELLLGVDALGLHIYDPENRLTPKISFPWNEIRNISYSDKEFTIKPLDKKIDVFKFNSSKLRVNKLILQLCIGNHDLFMRRRKADSLEVQQMKAQAREEKARKQMERQRLAREKQMREEAERTRDELERRLLQMKEEATMANEALMRSEETADLLAEKAQITEEEAKLLAQKAAEAEQEMQRIKATAIRTEEEKRLMEQKVLEAEVLALKMAEESERRAKEADQLKQDLQEAREAERRAKQKLLEIATKPTYPPMNPIPAPLPPDIPSFNLIGDSLSFDFKDTDMKRLSMEIEKEKVEYMEKSKHLQEQLNELKTEIEALKLKERETALDILHNENSDRGGSSKHNTIKKLTLQSAKSRVAFFEEL
partner: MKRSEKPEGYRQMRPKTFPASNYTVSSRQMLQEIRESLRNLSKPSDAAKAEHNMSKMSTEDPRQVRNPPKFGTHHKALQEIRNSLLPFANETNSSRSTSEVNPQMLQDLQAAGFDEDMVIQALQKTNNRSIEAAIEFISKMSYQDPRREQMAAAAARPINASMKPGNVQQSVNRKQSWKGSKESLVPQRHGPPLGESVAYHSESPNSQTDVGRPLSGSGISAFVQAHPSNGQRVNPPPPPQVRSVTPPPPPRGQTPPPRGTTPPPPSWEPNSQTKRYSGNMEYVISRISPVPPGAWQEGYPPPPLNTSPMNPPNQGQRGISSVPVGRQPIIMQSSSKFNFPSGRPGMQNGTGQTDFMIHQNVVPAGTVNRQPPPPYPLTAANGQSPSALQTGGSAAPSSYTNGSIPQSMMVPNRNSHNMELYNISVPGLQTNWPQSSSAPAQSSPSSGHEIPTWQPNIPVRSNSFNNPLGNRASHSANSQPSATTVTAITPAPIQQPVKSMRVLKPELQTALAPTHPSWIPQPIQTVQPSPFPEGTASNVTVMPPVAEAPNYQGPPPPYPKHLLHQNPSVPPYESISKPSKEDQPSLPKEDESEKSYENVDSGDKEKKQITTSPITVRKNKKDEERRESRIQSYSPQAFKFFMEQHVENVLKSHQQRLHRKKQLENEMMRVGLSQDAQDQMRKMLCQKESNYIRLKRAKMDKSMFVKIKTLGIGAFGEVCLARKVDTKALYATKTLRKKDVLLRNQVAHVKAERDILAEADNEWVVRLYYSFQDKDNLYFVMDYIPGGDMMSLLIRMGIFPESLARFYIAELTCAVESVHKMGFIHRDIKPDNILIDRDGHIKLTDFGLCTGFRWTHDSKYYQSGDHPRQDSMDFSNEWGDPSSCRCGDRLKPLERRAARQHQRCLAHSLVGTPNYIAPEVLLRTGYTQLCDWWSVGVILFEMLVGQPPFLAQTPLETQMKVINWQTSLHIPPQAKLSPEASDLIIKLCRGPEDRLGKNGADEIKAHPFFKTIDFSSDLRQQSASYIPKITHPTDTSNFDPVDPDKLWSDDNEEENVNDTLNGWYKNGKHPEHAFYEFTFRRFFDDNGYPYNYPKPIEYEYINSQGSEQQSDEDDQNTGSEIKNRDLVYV
B4: Serine/threonine-protein kinase LATS1 (Homo sapiens), O95835 (parent)
chain: B3 partner

Variants of: B1
Settings: with mob1_drome mats
For R708A, the “effect of a mutation on the interaction” value was “disrupting interaction strength”.

Variants of: B2
Settings: with merh_drome Mer
With A20P;I24T;L28P the “effect of a mutation on the interaction” value was “disrupting interaction strength”.

Variants of: B3
Settings: with lats1_human LATS1, O95835
L46R was tested, and the “effect of a mutation on the interaction” value was “disrupting interaction strength”. With L141P the “effect of a mutation on the interaction” value was “disrupting interaction strength”. With L64P the “effect of a mutation on the interaction” value was “disrupting interaction strength”. In the case of F62S, the “effect of a mutation on the interaction” value is reported as “disrupting interaction strength”.

Variants of: B4
Settings: with merl_human NF2, P35240
With A77P;I81T;L85P the “effect of a mutation on the interaction” value was “disrupting interaction strength”.

Variants of: B4
Settings: with NF2, P35240-1
For A77P;I81T;L85P, the “effect of a mutation on the interaction” value was “disrupting interaction strength”.
